These results are taken from the RNAGym collection of RNA variant scans (doi:10.1073/pnas.2313332121).

The labels stand for the following.
B1: TPR 5TU (parent)
chain: GGAUCUUCUCGAUCUAACAAAAAAGACAAAUCUGCCACAAAGCUUGAGAGCAUCUUCGGAUGCAGAGGCGGCAGCCUUCGGUGGCGCGAUAGCGCCAACGUUCUCAACUAUGACACGCAAAACGCGUGCUCCGUUGAAUGGAGUUUAUCAUG

Variants at the floor of the assay were thinned out.

The variants in this data set derive from B1. Nature of the data set: polymerase ribozyme fitness, log enrichment relative to wild type (log ratio); higher = more active; in vitro selection for triplet polymerase activity. The procedure, abridged:
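Each subunit of a heterodimeric triplet polymerase ribozyme was mutagenized into a library by PCR, transcribed, and subjected to one round of in vitro selection, run in triplicate. Libraries were annealed with a biotinylated primer, the partner subunit and triplets, incubated frozen at −7 °C, and extended constructs were gel-excised, captured on streptavidin beads and recovered by RT-PCR. Input and output libraries were sequenced on Illumina, keeping genotypes with ≥10 input reads and ≥1 read per output. Fitness is log base 2 of genotype enrichment divided by wild-type enrichment, from inverse-variance-weighted replicate averages.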
As to GGAUCUUCUCGAUGUAACAAAAAAGACAAUUCGGCCACAAAGCUUGAGCGCUUCUUCGGAUGCAGAGGCGGGGGCCUUCGGUGGCGUGAUAGCGCCAACGUUCUCAACUAUGACACGCAAAACGCGUGCUCCGUUGAAUGGAGGUUAUCAUG [C14G A30U U33G A49C A52U C72G A73G C87U U144G], the “polymerase ribozyme fitness (log ratio)” value is at most -4.2.
With GGAUCUUCUCGAUGUAACAAAAAAGACAAUUCUGCCACAAAGCUUGAGAGCAUCUUCGGAAGCAGAGGCGGCAGCCUUCGGUGGCGCGAUAACGCCAAAGUUCUCAACUAUGACACGCAAAACGCGUGCUCCGUUGAAUGGAGUUUAUCAUG [C14G A30U U61A G92A C99A], the “polymerase ribozyme fitness (log ratio)” value was at most -4.2.
The value for GGAUCUUCUCGAUGUAACAAAAAAGACGAAUCUGCCACAAAGCUUGAGAGCAACUUCGGAUGUAGAGGCGGCAGCCUUCGGUGGCGCGCUAGCGCCAACGUUCUCUACUAUGACACGCAAAACGCAUGCUCCGUUGAAUGAAGUUUAUCAUG [C14G A28G U53A C63U A89C A106U G126A G141A] was at most -4.2; that for GGAUCUUCUCGAUGUAACAAAAAAGACGAAUCUGCCACAAAGCUUGAGAGUUUCUUCGGAUGCAGAGGCGGCAGCCUUCGGUGGCGCAAUAGCGCCAACGUUCUCAACGAUGACACGCAAAACGCGUGCUCCGUUGAAUGGAGUUUAUCAUG [C14G A28G C51U A52U G88A U109G] was at most -4.2.
The result for GGAUCUUCUCGAUGUAACAAAAAAGACAAUUCUGCCACAAAGCUUGAGAGCAUCUUCGGAAGCAGAGGCGGCAGCCUUCGGUGGCGCGAUAACGCCAAAGUUCUCAACUAUGACGCGCAAAACGCGUGCUCCGUUGAAUGGAGUUUAUCAUG [C14G A30U U61A G92A C99A A115G] reads at most -4.2; that for GGAUCUUCUCGAUGUAACAAAAAAGACAAUUCUGCCACAACGUUUGAGACCAUCGUCGGAUGCAGAGGCGGCAGGCUUCGGUGGCGCGAUAGCGCCAACGUUCUCAACUAUGACACGUCAAACGCGUGCUCCGUUGAAUGGAGUUUAUCAUG [C14G A30U A41C C43U G50C U55G C75G C118U A119C], at most -4.2.
Turning to GGAUCUUCUCGAUGUAACAAAAAAGACAAGUCUGCCACAAAGCUUCAGAGCAUCUUCGGAUGCAGAGGCGGCAGCCUUCGGUGGCGCGAUAGCGUCAACGUUCUCAACUAUGACACGCAAAACGCGUGCUCCGUUGAAUGGAGUUUAUCAUG [C14G A30G G46C C95U], the “polymerase ribozyme fitness (log ratio)” value was -4.17.
The value for GGAUCUUCUCGAUGUAACAAAAAAGACUAAUCUGCCACAAAGCUUGAGAGCAUCGUCGGAUGCAGAGGCGGCAGCCUUCGGUGGCGCGUUAGCGCAAACGUUCUCAACUAUGACACGCAAAACGCAUCCUCCGUUGAAUCGAGUUUAUCAUG [C14G A28U U55G A89U C96A G126A G128C G140C] was at most -4.2; that for GGAUCUUCUCGAUGUAACAAAAAAGACAAAUCUGCCACAGCGCUUGAGAGCAUUUUCGGAUGCAGAGGCGGCAGCCUUCGGUGGGGCGAUAGCGCCAAUGUUCUCAACUAUGACACGCAAAACGCGUGCUCCGUUGAAUGGAGUUUAUCAUG [C14G A40G A41C C54U C85G C99U] was at most -4.2; that for GGAUCUUCUCGAUGUAACAAAAAAGACAAAUCUGCCCCAAAGCUUGAGAGCAUCUUCGGAUGCAGAGGCGGCAGCCUUCGGUGGCGCGAUAGCGCCAACGUUCUCAACUAUGACACGCAAAACGCGUGCUCCGUUGAAUGGAGUUUAUCAUG [C14G A37C] was -3.05.
The result for GGAUCUUCUCGAUGUAACAAAAAAGACAAAUCUGCCACACAGCUUGAGAGCAUCUUGGGAUGCAGAGGCGGCAGCCUUCGGUGGCGCGAUAGCGCCAACGUUCUCAACUAUGACACGCAAAACGCGUGCUCCGUUGAAUGGAGUUUAUCAUG [C14G A40C C57G] reads -2.31; that for GGAUCUUCUCGAUGUAACAAAAAAGUCAAAUCUGCCACAAAGCUUGAGAGCAUCUUCGCAUGCAGAGGCGGCAGCCUUCGGUGGCCCGAUAGCGCCAACAUUCUCAACUAUGACACGCAAAACGCGUGCUCCGUUUAAUGGAGAUUAUCAUG [C14G A26U G59C G86C G100A G136U U144A], at most -4.2; that for GGAUCUUCUCGAUGUAACAAAAAAGACACAUCUGCCACAAAGCUUGAGAGCAACUUCGGAUGCAGAGGCGGCAGCCUUCGGUGGCGCGAUAGCGUCAACGUUCUCAACUAUGAUACGCAAAACGCGUGCUCCGUUGAAUAGAGUUUAUCAUG [C14G A29C U53A C95U C114U G140A], -3.68.
The result for GGAUCUUCUCGAUGUAACAAAAAAGACAAAUCUGCCACAGAGCUUGAGAGCAUCUUCGGAUGCAGAGGCGGCGGCCUUCGGUGGUGCGAUAGCGCCAACGUUCUCAACUAUGACACGCAAAACGCGUGCUCCGUUGAAAGGAGUUUAUCAUG [C14G A40G A73G C85U U139A] reads at most -4.2; that for GGAUCUUCUCGAUGUAACAAAAAAGACAGAUCUGCCACAAAGCUUGAGAGCAUUUUCGGAUGCAGAGGCGGCAGCCUUCGGUGGCGCGAUAGCGCCAACGUUCUCAACUAUGACACGCAAAACGCGUGCUCGGUUGAAUGGAGUUUAUCAUG [C14G A29G C54U C132G], at most -4.2.
GGAUCUUCUCGAUGUAACAAAAAAGACGAAAUUACCACAAACCUUGAGAGCAUCGUCGGAUGCAGAGGCGGCAGCCUUCGGUGGCGCGAUAGCUCCAACGUUCUCAACUAUGACACGCAAAACGCGUGCUCCGUUGAAUGGAGUUUAUCAUG [C14G A28G U31A C32U G34A G42C U55G G94U]: the “polymerase ribozyme fitness (log ratio)” value is at most -4.2.
The result for GGAUCUUCUCGAUGUAACAAAAAAGACAAAUCUGCCACACAGCUUGAGAGCAUCAUCGGAUGCAGAGGCGGCAGCCUUCGCUGGCGCGAUAGCGCCAACGUUCUCAACUAUGACACGCAAAACGCAUGCUCCGUUGAAGAGAGUUUAUCAUG [C14G A40C U55A G81C G126A U139G G140A] reads at most -4.2.
GGAUCUUCUCGAUGUAACAAAAAAGACAAAUCUGCCACUAAGCUUGAGAGCAUCUUCAGAGGCAGAGGCGGCAGCCUUCGGUGGUGCGAUAGCGUCAACGUUCUCACCUAUGACACGCAAAACGCGUGCUCCGUUGAAUGCAGUUCAUCAUG [C14G A39U G58A U61G C85U C95U A107C G141C U146C]: the “polymerase ribozyme fitness (log ratio)” value was at most -4.2.
The result for GGAUCUUCUCGAUGUAACAAAAAAGACAAAUCUGCCACUAAGCUUGAGAGCAUCGUCGGAUGCAGAGGCGGCAGCCUUCGGUGGCGCGAUAGCGUCAACGUUCUCAACUAUGACACGCAAAACGCGUGCUCCGUUGAAUGGAGUUUAUCAUG [C14G A39U U55G C95U] reads at most -4.2.
